# Measurements reported in patent US20110117658A1 (published 2011).
# Bridges are numbered along the chain shown (N, C = ends). Where no end group is shown, it is not given here. [ ]: non-standard residue; d: D form. Gla = N[C@@H](CC(C(=O)O)C(=O)O)C(=O)O
# B1: porcine osteocalcin (other)
# chain: YLDHGLGAPAPYPDPL[Gla]PRR[Gla]VC[Gla]LNPDCDELADHIGFQEAYRRFYGIA
# modifications: disulfide 23-29; not fully specified
# notes: the entries describe its self-association into a dimer; In the crystal only residues 13-49 are ordered (residues 1 to 12 missing from the model); also called pOC; POC13-49 (part seen in the crystal structure)
# How the values were obtained:
# [1] = target: the molecule itself; assay: sedimentation equilibrium, monomer-dimer equilibrium model, in the presence of 10 mM CaCl2; extrapolated dimer dissociation constant
# Excerpt: (§1) The hydroxyapatite lattice binding mode represented by the best solution presupposes that osteocalcin engages hydroxyapatite with the acidic Ca²⁺-coordinating surface as a monomer. In the crystal structure of porcine osteocalcin, however, the five Ca²⁺ ions are sandwiched between two crystallographically related protein molecules. If overly stable, this dimeric state could present an impediment to hydroxyapatite binding. To investigate whether porcine osteocalcin exists as a monomer or dimer in solution, sedimentation equilibrium analysis in the presence and absence of 10 mM CaCl₂ was carried out. In both cases, the sedimentation equilibrium data were best fitted to a monomer-dimer equilibrium model (FIG. 6). […] Theses Kd values are 2-3 orders of magnitude higher than the concentration of osteocalcin in human serum […],³¹ showing that osteocalcin exists as a monomer in vivo.
# [2] = target: the molecule itself; assay: sedimentation equilibrium, monomer-dimer equilibrium model, in the absence of calcium; extrapolated dimer dissociation constant
# Excerpt: as §1
protein,measurement,setting,value
B1,Kd,[1],200 µM
same,Kd,[2],800 µM
